Data set [1] concerns mouse model of ATN or ischemia/reperfusion injury. Put plainly: Mouse model of ATN (30 min clamp, contralateral nephrectomy): plasma creatinine. Conditions: for protection against ATN (creatinine, FIG. 17A): mice, 30 minutes of ischemia, 10 μg protein or single dose, 15 min prior to ischemia. Format: in vivo, mice. On the procedure:
Male C57BL/6 mice (20-25 gr; Charles River) were anesthetized with intraperitoneal pentobarbital (50 mg/kg) and placed on a heating pad under a warming light to maintain 37© core body temperature. Kidneys were exposed through an abdominal section and the right kidney was either removed or its vascular pedicle and ureter ligated. The vascular pedicle of the left kidney or both kidneys was clamped by a microaneurysm clip (Kent Scientific) for 30 minutes after right nephrectomy. This period of ischemia generated reproducible renal injury but minimized mortality. During the procedure, PBS (0.5 ml) was used to dampen the peritoneum. The animal was closed with 5-0 Nylon. Saline, NGAL, retinol-loaded retinol binding protein (RBP), enterochelin, or desferroxamine mesylate (DFO) were injected into the peritoneum or subcutaneously 15 min. prior to ischemia or 1-2 hr after reperfusion.
After 6 or 24 hr of reperfusion, heparinized plasma, urine and kidney samples were obtained to measure NGAL (polyclonal 1:500), Heme oxygenase-1 (Stressgen, 1:2000), E-cadherin (BD Transduction Labs, 1:2000), N-cadherin (BD Transduction Labs, 1:3000) and GAPDH (Chemicon International, 1:3000) using immunoblots. Plasma was also used for creatinine and blood urea nitrogen colorimetric assays. Sagittal sections of the kidney were fixed in 4% formalin, or were snap frozen for mRNA and protein analysis. Paraffin-embedded sections (5 μm) were stained with hematoxylin-eosin or by an in situ kit (Fluorescein-TUNEL, Roche) for apoptotic nuclei or for total nuclei (Toprol, Molecular Probes). For cell proliferation analysis, BrdU was injected into the peritoneum 1 hour before sacrifice, and cryostat sections were stained with anti-BrdU (Roche) according to the manufacturer.

The nature of data set [2]: Cofactor-dependent ^55Fe binding to NGAL (10 kDa filter retention). To be noted: for inhibition of ^55Fe capture by apo-NGAL+urine: competitor: 1000-fold unlabeled iron citrate or 50-fold iron-saturated enterochelin; for retention of ^55Fe: washed on 10 kDa filter. On the procedure:
The urine fraction was obtained by passing fresh urine sequentially through 10 kDa and 3 kDa membranes (YM-10 and YM-3, Amicon). The mixture was then washed three times on 10 kDa membrane (YM-10, Amicon). Iron-free enterochelin-loaded NGAL (rather than NGAL without siderophore) served as a positive control for iron capture. Ferric citrate (1 mM) or iron-loaded enterochelin (Sid:Fe, 50 μM) were used as competitors of ^55Fe binding.

Data set [3] can be described thus: NGAL trafficking after intraperitoneal or subcutaneous injection. The class given is in vivo, mice. From the text:
(§1) Recombinant human and mouse GST-NGAL were expressed in BL21 or XL1-Blue strains of E. coli (Stratagene) with additional ferric sulfate (50 Micro Molar, Sigma-Aldrich Co.). NGAL was isolated using Glutathione Sepharose 4B beads (Amersham Biosciences), eluted by thrombin cleavage (Sigma-Aldrich Co.; St. Louis, Mo.) and then further purified by gel filtration (Superdex75, SMART system, Amersham Biosciences) and examined by Coomassie gels (Biorad). BL-21 derived NGAL was loaded with iron free or iron saturated enterochelin, a siderophore (EMC Microcollections) using a 5 fold molar excess. Unbound siderophore (0.7 KD) was removed by washing (Microcon YM-10) with PBS. To produce ^55Fe or gallium (Ga) loaded NGAL we incubated the iron-free enterochelin NGAL complex with equimolar ^55Fe (18mCi) or Ga in NaCl (150 mM) Hepes (20 mM; pH 7.4) and the complex was washed 3 times (10K filter). Iodobeads (Pierce) were used to label NGAL with ^125I and unincorporated ^125I was removed by gel filtration (PD-10 column) followed by extensive dialysis (7 kDa cut off membrane, Pierce) against PBS. Alexa-568 and fluorescein isothiocyanate (Molecular Probes) was coupled to NGAL, according to the manufacturer, and then extensively dialyzed. Protein concentration was determined by Coomassie gels in comparison with bovine serum albumin standard.
(§2) To detect delivery of NGAL to the kidney rNGAL (10 or 100 μg), Alexa 568-NGAL (100 μg), ^125I-NGAL ([…], 2×10^6 cpm), or ^55Fe loaded enterochelin-NGAL (10 μg, 1×10^6 cpm) was injected into the peritoneum and blood, urine, kidney and liver samples were obtained. NGAL was detected by immunoblot. Alexa-568 NGAL was detected by confocal microscopy (LSM Meta Detector) and NGAL mediated iron trafficking was detected by scintillation counter and by light microscopic radioautography of Epon embedded kidneys. Slides were exposed to emulsion (Polyscience) for 1 week and then developed with Microdol and counterstained with Toluidine blue. To detect lysosomes in the proximal tubule, mice were injected with Fluorescein Dextran (46 kD; 0.5 mg; Sigma) 24 hours before Alexa 568 NGAL injections. LAMP1 (Santa Cruz) was detected in cryostat sections of 4% paraformaldehyde fixed kidneys.

Data set [4] in a line: Distribution and radioautography of ^55Fe after ^55Fe:Sid:NGAL injection. Conditions: for Silver Grains (% Total): kidney radioautography; for ^55Fe recovered: one hour after 10 μg intraperitoneal. Format: in vivo, mice.
Source text: as §1, §2

“Also recorded” adds a separate entry of the source. Where a name gives a salt, the structure may show the parent alone.

The source of these data is patent US8247376B2, “NGAL for reduction and amelioration of ischemic and nephrotoxic injuries” (The Trustees of Columbia University, priority 2004, dated 2012).

For `CC(=O)N(O)CCCCCNC(=O)CCC(=O)N(O)CCCCCNC(=O)CCC(=O)N(O)CCCCCN` [DFO, desferrioxamine mesylate, reference compound], in data set [1], the “protection against ATN (creatinine, FIG. 17A)” value (“protection against ATN” below) is “failed to protect against ATN; also recorded: ineffective”.
Consider “Ferric citrate [iron citrate, reference compound]”, for which the “inhibition of ^55Fe capture by apo-NGAL+urine” value is recorded as “inhibited” in data set [2] and “blocked” in data set [2] (listed as iron-citrate).

B1: Alexa-568 NGAL: NGAL coupled to Alexa-568 fluorescent dye (conjugate, UniProt P11672 21-200, looked up)
Neutrophil …: QDSTQNLIPAPSLLTVPLQPDFRSDQFRGRWYVVGLAGNAVQKKTEGSFTMYSTIYELQENNSYNVTSILVRDQDQGCRYWIRTFVPSSRAGQFTLGNMHRYPQVQSYNVQVATTDYNQFAMVFFRKTSENKQYFKITLYGRTKELSPELKERFTRFAKSLGLKDDNIIFSVPTDQCIDN
modifications: Alexa-568 dye
notes: NGAL coupled to Alexa-568 fluorescent dye
Regarding B1, in data set [3] (by one hour after injection), the “localization of fluorescent NGAL in kidney” value was “localized to large vesicles in the subapical domain of the cortical proximal tubule”. Besides, in data set [3] (one hour after injecting, fluorescein-dextran the day before), the “NGAL vesicles also containing dextran (lysosomes)” value came out at 33%.

B2: holo-NGAL: NGAL cloned in XL-1Blue bacteria; contains enterochelin and is iron-loaded (protein, UniProt P11672 21-200, looked up)
Neutrophil …: QDSTQNLIPAPSLLTVPLQPDFRSDQFRGRWYVVGLAGNAVQKKTEGSFTMYSTIYELQENNSYNVTSILVRDQDQGCRYWIRTFVPSSRAGQFTLGNMHRYPQVQSYNVQVATTDYNQFAMVFFRKTSENKQYFKITLYGRTKELSPELKERFTRFAKSLGLKDDNIIFSVPTDQCIDN
modifications: enterochelin, iron-loaded
notes: NGAL cloned in XL-1Blue bacteria; contains enterochelin and is iron-loaded
For B2, the “protection against ATN” value in data set [1] is “rescues renal function”; in data set [1] (listed as holo-Ngal), “protected the kidney”.

B3: apo-NGAL:Sid:Fe: BL-21-cloned NGAL reconstituted with iron-saturated enterochelin (protein, UniProt P11672 21-200, looked up)
Neutrophil …: QDSTQNLIPAPSLLTVPLQPDFRSDQFRGRWYVVGLAGNAVQKKTEGSFTMYSTIYELQENNSYNVTSILVRDQDQGCRYWIRTFVPSSRAGQFTLGNMHRYPQVQSYNVQVATTDYNQFAMVFFRKTSENKQYFKITLYGRTKELSPELKERFTRFAKSLGLKDDNIIFSVPTDQCIDN
modifications: iron-saturated enterochelin
notes: BL-21-cloned NGAL reconstituted with iron-saturated enterochelin
Regarding B3, the “retention of ^55Fe” value in data set [2] (in buffer) is on record as “not”. In addition, the “protection against ATN” value in data set [1] was “protective effect”; in data set [1] (listed as apo-Ngal:Sid:Fe), “enhanced the protection of the kidney and blunted the rise in serum creatinine”.

B4: apo-NGAL: NGAL cloned in BL-21 bacteria; does not contain enterochelin (siderophore free) (protein, UniProt P80188 21-198, looked up)
Neutrophil …: QDSTSDLIPAPPLSKVPLQQNFQDNQFQGKWYVVGLAGNAILREDKDPQKMYATIYELKEDKSYNVTSVLFRKKKCDYWIRTFVPGCQPGEFTLGNIKSYPGLTSYLVRVVSTNYNQHAMVFFKKVSQNREYFKITLYGRTKELTSELKENFIRFSKSLGLPENHIVFPVPIDQCIDG
modifications: siderophore-free
As to B4, the “retention of ^55Fe” value in data set [2] (in buffer) is “failed to trap ^55Fe and not”; in data set [2] (with mouse urine fraction (<3,000 Da)), “retains ^55Fe”. Besides, the “protection against ATN” value was “minimally active” in data set [1] and “reduced level of protection” in data set [1] (listed as apo-Ngal).

B5: apo-NGAL:Sid:Ga: gallium-loaded enterochelin-NGAL complex (protein, UniProt P80188 21-198, looked up)
Neutrophil …: QDSTSDLIPAPPLSKVPLQQNFQDNQFQGKWYVVGLAGNAILREDKDPQKMYATIYELKEDKSYNVTSVLFRKKKCDYWIRTFVPGCQPGEFTLGNIKSYPGLTSYLVRVVSTNYNQHAMVFFKKVSQNREYFKITLYGRTKELTSELKENFIRFSKSLGLPENHIVFPVPIDQCIDG
modifications: enterochelin loaded with gallium
notes: gallium-loaded enterochelin-NGAL complex
B5 yielded a creatinine in data set [1] (gallium complex 15 minutes prior to ischemia) of 3.17±0.1. The “protection against ATN” value is “ineffective” in data set [1] and “not protected” in data set [1] (listed as apo-Ngal:Sid:Ga).

B6: ^55Fe:Sid:NGAL: iron-free enterochelin-NGAL incubated with ^55Fe at 1:1 stoichiometry (protein, UniProt P80188 21-198, looked up)
Neutrophil …: QDSTSDLIPAPPLSKVPLQQNFQDNQFQGKWYVVGLAGNAILREDKDPQKMYATIYELKEDKSYNVTSVLFRKKKCDYWIRTFVPGCQPGEFTLGNIKSYPGLTSYLVRVVSTNYNQHAMVFFKKVSQNREYFKITLYGRTKELTSELKENFIRFSKSLGLPENHIVFPVPIDQCIDG
modifications: enterochelin loaded with 55Fe
notes: iron-free enterochelin-NGAL incubated with ^55Fe at 1:1 stoichiometry
In the case of B6, the “Relative SA (% grains/% point count)” value in data set [4] (Apical MB) was 2.21; in data set [4] (Basal MB) it was 0.59; in data set [4] (Cytosol), 1; in data set [4] (Glomerular Tuft), 0.11; in data set [4] (Interstitium) it was 0.3; in data set [4] (Lumen), 1.43. The “Relative SA (% grains/% point count)” value in data set [4] (Nucleus) is listed as 0.56. Further, the “Silver Grains (% Total)” value is recorded as 12.91 % Total in data set [4] (Apical MB); 3.81 % Total in data set [4] (Basal MB); 48.98 % Total in data set [4] (Cytosol); 0.13 % Total in data set [4] (Glomerular Tuft); 3.71 % Total in data set [4] (Interstitium); 26.46 % Total in data set [4] (Lumen). The “Silver Grains (% Total)” value in data set [4] (Nucleus) was 4.02 % Total. Moreover, the “^55Fe recovered” value is recorded as 55% in data set [4] (kidney); 2.4% in data set [4] (liver); 4.3% in data set [4] (plasma); 0.2% in data set [4] (spleen); 0.6% in data set [4] (urine).

B7: apo-NGAL:Sid: BL-21-cloned NGAL reconstituted with iron-free enterochelin (protein, UniProt P80188 21-198, looked up)
Neutrophil …: QDSTSDLIPAPPLSKVPLQQNFQDNQFQGKWYVVGLAGNAILREDKDPQKMYATIYELKEDKSYNVTSVLFRKKKCDYWIRTFVPGCQPGEFTLGNIKSYPGLTSYLVRVVSTNYNQHAMVFFKKVSQNREYFKITLYGRTKELTSELKENFIRFSKSLGLPENHIVFPVPIDQCIDG
modifications: complexed with iron-free enterochelin
notes: BL-21-cloned NGAL reconstituted with iron-free enterochelin
Turning to B7, the “retention of ^55Fe” value in data set [2] (in buffer) is “retained”. The “protection against ATN” value in data set [1] is “protective effect”; in data set [1] (listed as apo-Ngal:Sid) it was “enhanced the protection of the kidney and blunted the rise in serum creatinine”.
